This passage reports Kd results from publication PMC8571082 (2021).

Test [1] deals with T1, factor inhibiting HIF-1 (FIH-1), full-length (human, UniProt Q9NWT6 1-349). In words: ITC; +αKG, +EDTA.
The target of test [2] is T1, factor inhibiting HIF-1 (FIH-1), …. Nature of the test: ITC; -αKG, +EDTA.
Test [3] has the same target. In words: ITC; +αKG, -EDTA.
Test [4] shares this target. Nature of the test: ITC; -αKG, -EDTA.

T1 sequence (Q9NWT6 whole entry): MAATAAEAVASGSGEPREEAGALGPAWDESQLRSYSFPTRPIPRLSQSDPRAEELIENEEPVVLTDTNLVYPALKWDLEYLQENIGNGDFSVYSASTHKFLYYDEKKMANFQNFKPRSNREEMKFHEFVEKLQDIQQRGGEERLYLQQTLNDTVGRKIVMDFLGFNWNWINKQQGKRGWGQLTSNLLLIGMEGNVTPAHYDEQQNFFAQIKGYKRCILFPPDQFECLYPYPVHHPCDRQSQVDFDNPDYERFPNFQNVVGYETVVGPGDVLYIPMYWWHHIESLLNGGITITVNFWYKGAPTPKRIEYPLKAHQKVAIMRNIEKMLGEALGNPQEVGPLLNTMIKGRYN

B1: Mint3NT, N-terminal fragment (1–214) of Mint3 (domain or fragment)
chain: MDFPTISRSPSGPPAMDLEGPRDILVPSEDLTPDSQWDPMPGGPGSLSRMELDESSLQELVQQFEALPGDLVGPSPGGAPCPLHIATGHGLASQEIADAHGLLSAEAGRDDLLGLLHCEECPPSQTGPEEPLEPAPRLLQPPEDPDEDSDSPEWVEGASAEQEGSRSSSSSPEPWLETVPLVTPEEPPAGAQSPETLASYPAPQEVPGPCDHED
Consider B1, for which the Kd in test [1] was determined as 2.2 µM; in test [2], 8.1 µM; in test [3], 1 µM; in test [4] it was 3.4 µM.
